Experimental findings from PMC5101909, “Crosslinked duplex DNA nanogels that target specified proteins” are described below.

One data set concerns the target albumin (BSA) (bovine, UniProt P02769 25-607). Briefly: EtBr fluorescence (duplex displacement); EtBr-loaded nanogel; Nanogels generated in PBS; buffer, pH and temperature of thrombin binding assays not in the material (section 2.5 text missing). To be noted: label: EtBr intercalated; 11 bp GCTCCGGTTGG/CCAACCGGAGC; 5' overhangs 7 nt T (aptaDNA) and 12 nt T (coDNA); 3' overhang 9 nt TGTGGTTGG (aptaDNA).

Data set [1] deals with T1, thrombin (UniProt P00734;P00734 328-363;364-622). As to the kind of experiment: EtBr fluorescence decrease (duplex displacement); EtBr-loaded nanogel; concentration dependent; Nanogels generated in PBS; buffer, pH and temperature of thrombin binding assays not in the material (section 2.5 text missing).
Data set [2] deals with T1, thrombin. Briefly: EMSA (agarose gel, SYBR Gold); aptamer polymer/thrombin 1/10; Nanogels generated in PBS; buffer, pH and temperature of thrombin binding assays not in the material (section 2.5 text missing). For orientation: A gel shift assay detects complexes by their altered migration in electrophoresis.

albumin (BSA), sequence (P02769 25-607): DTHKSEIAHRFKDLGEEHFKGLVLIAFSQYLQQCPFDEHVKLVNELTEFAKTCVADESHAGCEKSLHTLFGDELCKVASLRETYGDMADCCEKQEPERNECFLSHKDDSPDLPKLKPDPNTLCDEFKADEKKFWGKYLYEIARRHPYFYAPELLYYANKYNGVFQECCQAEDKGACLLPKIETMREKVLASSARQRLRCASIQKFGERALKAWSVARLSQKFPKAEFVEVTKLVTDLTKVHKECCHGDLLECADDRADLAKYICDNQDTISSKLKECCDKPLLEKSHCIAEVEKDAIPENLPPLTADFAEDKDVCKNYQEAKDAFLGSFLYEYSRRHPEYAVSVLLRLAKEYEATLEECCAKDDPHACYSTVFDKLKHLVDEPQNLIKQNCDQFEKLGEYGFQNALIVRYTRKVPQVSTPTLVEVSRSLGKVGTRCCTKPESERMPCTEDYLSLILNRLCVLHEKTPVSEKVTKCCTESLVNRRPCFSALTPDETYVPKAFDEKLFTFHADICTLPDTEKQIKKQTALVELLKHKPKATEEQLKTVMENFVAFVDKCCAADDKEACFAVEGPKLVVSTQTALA

B1: P(MPC/aptaDNA)/P(MPC/coDNA) nanogel (mixed)
DNA 1: TTTTTTTGCTCCGGTTGGTGTGGTTGG
DNA 2: TTTTTTTTTTTTCCAACCGGAGC
modifications: 5'-acrydite of both strands copolymerized with MPC (38/1 and 45/1)
Regarding B1, the binding result is on record as “no binding” with albumin (BSA) and “binds” with thrombin [1].

B2: P(MPC/aptaDNA) (structured_DNA)
DNA: TTTTTTTGCTCCGGTTGGTGTGGTTGG
modifications: 5'-acrydite copolymerized with MPC (MPC/oligo 38/1)
Take B2: the binding result with thrombin [2] is reported as “binds”.
